Data reported in the supplement of paper PMC10724198.
± gives the standard deviation of the averaged measurements.

These sequences were tested on Saccharomyces cerevisiae (assay: protein stability index of tFT-peptide fusion (C-terminal peptide) (PSI (0-1 scale)); higher = more stable (slower turnover)). Conditions: genetic background: wild type; temperature: 30 C.
Protocol: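 Multiplexed protein stability (MPS) profiling in S. cerevisiae. Random 12-aa peptides (tFT-X12 library) are fused to the C-terminus of a sfGFP-mCherry tandem fluorescent timer, after mCherry and a GGGS linker. Cells are FACS-sorted into 8 mCherry/sfGFP bins and deep-sequenced. The protein stability index (PSI) is the read-weighted bin average, scaled from 0 (unstable) to 1 (stable). Only peptides with >10 reads are reported; cells were grown at 30 °C in SC-His with glucose.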
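Further: PSI is a weighted mean of sequencing reads over stability bins, variants kept only with over 10 reads, mCherry proximal and sfGFP distal, peptide attached via GGGS linker.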

In order of falling protein stability index:
1. RAACALSRRGLM  0.926 ± 0.1
2. PPPPPRPSPPHP  0.833 ± 0.022
3. YYSTPLARSRSP  0.831 ± 0.21
4. FYREFNSSSVCT  0.788 ± 0.24
5. CIDCGRKDIARL  0.785 ± 0.066
6. PRPPPSRSFPPP  0.784 ± 0.13
7. ERIKQGKKKRGT  0.778 ± 0.12
8. PHATPPPTRPPS  0.777 ± 0.062
9. GFFGDFIVFDFS  0.777 ± 0.022
10. SNPCLPPPSFAS  0.77 ± 0.019
11. GSTSWAWITLPH  0.747 ± 0.0077
12. RGKEREGGRQER  0.746 ± 0.045
13. KKKNEAKKKKTK  0.744 ± 0.058
14. VCPGMLVYGRGI  0.744 ± 0.092
15. HEEPEVPEIQHV  0.743 ± 0.063
16. LILLLTPPVIHH  0.743 ± 0.051
17. GFKEGRSYWRFY  0.74 ± 0.034
18. YNGNSHQTHRHP  0.74 ± 0.022
19. SWLASASGSHLI  0.74 ± 0.015
20. EEHVIQNIKCKN  0.738 ± 0.037
21. RFVAFDFLGISL  0.736 ± 0.2
22. EERNSVRGYTES  0.734 ± 0.028
23. PPTPQRRRSPPP  0.7326 ± 0.0066
24. DQTPRWQRCTRQ  0.733 ± 0.12
25. RTCRYRRVPAET  0.729 ± 0.066
26. PPPPRPACLPSN  0.727 ± 0.018
27. GGRGGEVVLWQA  0.726 ± 0.12
28. FPSPSLSSLPPL  0.725 ± 0.058
29. PPPQFPRPRPTS  0.724 ± 0.014
30. GGAEGLHVRDVV  0.722 ± 0.051
31. LSLTRIFQLTRW  0.721 ± 0.023
32. ARPPPPPPSVDP  0.719 ± 0.011
33. TPPATFCVPPPH  0.719 ± 0.053
34. SDKVLSSTEIQN  0.719 ± 0.039
35. NRTRFLSLDTRP  0.719 ± 0.023
36. FDLLSVGRARSW  0.716 ± 0.036
37. SIDPAEFSSTLP  0.7125 ± 0.0029
38. YEACQTGASICR  0.7125 ± 0.0013
39. RGCCSVAFRCVV  0.712 ± 0.066
40. PSRYHPLPPPTP  0.711 ± 0.084
41. FVADRLIFGKSL  0.71 ± 0.044
42. TTSKQHRPKQMN  0.708 ± 0.23
43. VPRTFQDLLPAP  0.707 ± 0.04
44. RGGGGGGSRTGA  0.706 ± 0.026
45. APKLWLPYTCQS  0.705 ± 0.059
46. GTQPAAGNTPWA  0.703 ± 0.029
47. PSLHSPPPPPPR  0.703 ± 0.053
48. SLASHVLSRPTL  0.7 ± 0.047
49. LSPAPPHRYSPY  0.7 ± 0.043
50. KPSAKRRNLFKL  0.699 ± 0.15
51. GLPWRRVGGGSG  0.699 ± 0.048
52. VCSFLSVDASPP  0.699 ± 0.018
53. IIEESTRPSPLG  0.697 ± 0.059
54. PSSPLFLPPPPP  0.696 ± 0.023
55. SSSVSARAVSLP  0.6958 ± 0.0033
56. TRGAPHHSSGRG  0.693 ± 0.033
57. EKKKKIKNKESI  0.6932 ± 0.0036
58. APPSSYSSPPPS  0.692 ± 0.017
59. KEREGGSMNGGG  0.692 ± 0.064
60. VGWRVAVGWGLG  0.691 ± 0.083
61. PHGSLPTRLPGP  0.689 ± 0.035
62. RFGSGKCLALRG  0.689 ± 0.066
63. MTRGRWAKKTAK  0.688 ± 0.038
64. SVLTSYFFYLPP  0.6869 ± 0.0046
65. LRSVNVLAALFS  0.686 ± 0.043
66. VTGIDGGSLCLR  0.6842 ± 0.0059
67. SRRVAPEPSIPP  0.683 ± 0.018
68. LPSARLPPPPPR  0.683 ± 0.021
69. VVRWFGGGCVRG  0.682 ± 0.033
70. ELRCSRPIHSDF  0.681 ± 0.013
71. PLLPPPLFSLLR  0.681 ± 0.015
72. IYCWGVSFGWLR  0.68 ± 0.021
73. CTRCKRDDYNIE  0.6803 ± 0.006
74. KNSWVLPPSPRS  0.68 ± 0.04
75. RGGSGGSCMRYV  0.678 ± 0.066
76. PLSCSPPLLSPS  0.678 ± 0.0089
77. ECVGSSKVYMLL  0.677 ± 0.092
78. PPTPSLPRPPMQ  0.676 ± 0.014
79. LLPSPLHGCTMS  0.676 ± 0.01
80. YFPSSTLPPPVP  0.675 ± 0.029
81. HDEGLEGLTVVF  0.675 ± 0.019
82. PACPLISPIGRF  0.673 ± 0.05
83. GTATINQISSPQ  0.673 ± 0.028
84. SLWRLKESYRQS  0.673 ± 0.039
85. RCVLWSVLSTQV  0.672 ± 0.042
86. VKSSIGWLKVGF  0.671 ± 0.15
87. SYWARCVHTTIA  0.669 ± 0.02
88. KLKIKREKKKRK  0.668 ± 0.019
89. KNANLRLPWKAH  0.667 ± 0.029
90. EGSRRQERAGRQ  0.6668 ± 0.0028
91. NVKPGKIRRRRG  0.667 ± 0.14
92. EESRVRTTNNTT  0.666 ± 0.057
93. PTRPSHTALPSA  0.664 ± 0.023
94. EKTQQMPQPNNQ  0.663 ± 0.007
95. PVVSRPSNFRWV  0.663 ± 0.02
96. PDASRRVPPPPD  0.663 ± 0.066
97. AFYLYLSSTSRF  0.662 ± 0.0086
98. RNKNYIDEEKER  0.661 ± 0.037
99. GGVGGGVEPCFV  0.66 ± 0.028
100. ILPCLSVRFFAP  0.658 ± 0.0068
101. RVQELEDGCAAE  0.658 ± 0.024
102. SGAGRRMGGARE  0.657 ± 0.051
103. SPPPPLHPALPA  0.656 ± 0.083
104. VIPTYESNDRQS  0.652 ± 0.064
105. GLERGRLGSGCG  0.652 ± 0.0075
106. SLIPSRSLGFLH  0.65 ± 0.05
107. SPRRPPQHPTLL  0.65 ± 0.016
108. TPTSLRLSSLSP  0.648 ± 0.036
109. QVVEANNPALSF  0.647 ± 0.02
110. ARCSPVPWGGGE  0.647 ± 0.033
111. PQILTSRVAIKL  0.646 ± 0.068
112. EKGKGREIKKGE  0.646 ± 0.048
113. NINKINKKCTRV  0.645 ± 0.055
114. LPLPPPCSRVLF  0.644 ± 0.074
115. DGVAMCGLKASL  0.643 ± 0.1
116. PHPSPGAALFAN  0.643 ± 0.019
117. LNVVSRLLACGL  0.642 ± 0.022
118. QIFPLRLTWSRR  0.642 ± 0.029
119. LRLLSFFITSFL  0.64 ± 0.13
120. ILRLVGRGLVLL  0.639 ± 0.013
121. HLPLLLFHPPLH  0.637 ± 0.0051
122. HYVQARMRSAVP  0.636 ± 0.091
123. RIVMSSDHTFQG  0.635 ± 0.0072
124. WSFQTRSVNICI  0.633 ± 0.021
125. LHISYPVPPLRM  0.633 ± 0.11
126. PPSPSPPAPQAS  0.632 ± 0.05
127. WTTWAYFSDPTS  0.621 ± 0.021
128. RVSVYTFVSLSN  0.619 ± 0.035
129. LLAPSPPPPLPP  0.61 ± 0.13
130. PASPHPPSPSPL  0.604 ± 0.022
131. PSAPPPPPPSPP  0.5979 ± 0.005
132. LFFGSNLFLLAL  0.595 ± 0.043
133. SPLPLLRPPSSH  0.593 ± 0.047
134. VFTALALISYMQ  0.5917 ± 0.0022
135. ECYLYGSMDGFI  0.588 ± 0.036
136. SPRVLSLLLRSM  0.5811 ± 0.0036
137. APRRVPWLLGRV  0.578 ± 0.099
138. TNGPSVWYFLVL  0.575 ± 0.052
139. GVGSCVILRLRN  0.557 ± 0.02
140. LFGVRFTLGYLF  0.554 ± 0.016
141. AALSTYPLVTCS  0.547 ± 0.012
142. PPPPPPSISPSP  0.5389 ± 0.0053
143. LLSLLPFGCLLL  0.536 ± 0.031
144. VGSGKYGVVGVG  0.518 ± 0.029
145. VIRPMTVYSVVS  0.515 ± 0.029
146. FPLSFLLDLLLV  0.509 ± 0.013
